Measurements as given in publication PMC9482650, “Quantitative fragmentomics allow affinity mapping of interactomes” (Nature Communications, 2022).
Changes are numbered by the printed parent chain.

Key:
Test in all cases: holdup assay
Set-up in all cases: key: below the threshold = too weak to quantify, mostly under pKd 3.1 to 4
APBA1_1, Q02410 = biological target: T1, APBA1_1, Q02410
T1 sequence (Q02410 651-752, limits assumed, looked up): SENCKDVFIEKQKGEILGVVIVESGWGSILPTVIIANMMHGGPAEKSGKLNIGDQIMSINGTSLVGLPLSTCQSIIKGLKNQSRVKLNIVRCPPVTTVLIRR

APBA1_2, Q02410 = biological target: T2, APBA1_2, Q02410
T2 sequence (Q02410 742-832, limits assumed, looked up): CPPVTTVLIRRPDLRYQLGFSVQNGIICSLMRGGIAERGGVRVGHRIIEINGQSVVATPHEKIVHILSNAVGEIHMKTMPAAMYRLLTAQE

APBA2_1, Q99767 = biological target: T3, APBA2_1, Q99767
T3 sequence (Q99767 563-664, limits assumed, looked up): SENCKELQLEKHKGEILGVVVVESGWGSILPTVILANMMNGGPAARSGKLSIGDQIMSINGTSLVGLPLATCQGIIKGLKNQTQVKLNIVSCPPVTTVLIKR

APBA2_2, Q99767 = biological target: T4, APBA2_2, Q99767
T4 sequence (Q99767 654-744, limits assumed, looked up): T2 sequence (Q02410 742-832, limits assumed, looked up) with R10K, R15K, P59A, H65Q, I66A, A70S, Y84F, A89G

DLG4_1, P78352 = biological target: DLG4_1, P78352
Sequence of DLG4_1, P78352 (P78352 62-152): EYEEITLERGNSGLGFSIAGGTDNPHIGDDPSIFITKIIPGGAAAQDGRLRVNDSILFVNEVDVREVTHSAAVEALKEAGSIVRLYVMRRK

DVL3, Q92997 = biological target: T5, DVL3, Q92997
T5 sequence (Q92997 244-331, limits assumed, looked up): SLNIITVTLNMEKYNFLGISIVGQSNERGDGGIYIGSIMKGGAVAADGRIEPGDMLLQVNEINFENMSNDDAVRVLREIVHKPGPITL

FRMPD2_3, Q68DX3 = biological target: FRMPD2_3, Q68DX3
Sequence of FRMPD2_3, Q68DX3 (Q68DX3 1073-1166): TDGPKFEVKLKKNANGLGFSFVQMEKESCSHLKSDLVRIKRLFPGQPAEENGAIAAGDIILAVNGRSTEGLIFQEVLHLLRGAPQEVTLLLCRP

GRID2IP_1, A4D2P6 = biological target: GRID2IP_1, A4D2P6
Sequence of GRID2IP_1, A4D2P6 (A4D2P6 1-87): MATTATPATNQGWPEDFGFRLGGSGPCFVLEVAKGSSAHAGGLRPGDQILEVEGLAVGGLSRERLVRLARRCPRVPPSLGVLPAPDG

GRIP1_4, Q9Y3R0 = biological target: T6, GRIP1_4, Q9Y3R0
T6 sequence (Q9Y3R0 467-571, limits assumed, looked up): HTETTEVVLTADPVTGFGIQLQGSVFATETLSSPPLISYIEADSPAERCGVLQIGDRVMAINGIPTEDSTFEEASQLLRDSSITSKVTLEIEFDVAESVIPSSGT

GRIP2_4, Q9C0E4 = biological target: GRIP2_4, Q9C0E4
Sequence of GRIP2_4, Q9C0E4 (Q9C0E4 446-548): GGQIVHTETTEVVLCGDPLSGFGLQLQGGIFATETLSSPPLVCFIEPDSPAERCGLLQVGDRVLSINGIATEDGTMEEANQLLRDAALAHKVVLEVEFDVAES

HTRA3, P83110 = biological target: T7, HTRA3, P83110
T7 sequence (P83110 354-453, limits assumed, looked up): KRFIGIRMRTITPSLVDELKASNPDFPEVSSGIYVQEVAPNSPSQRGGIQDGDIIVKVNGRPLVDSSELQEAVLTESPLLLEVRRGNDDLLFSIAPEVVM

Inadl_4, Q8NI35 = biological target: Inadl_4, Q8NI35
Sequence of Inadl_4, Q8NI35 (Q8NI35 547-651): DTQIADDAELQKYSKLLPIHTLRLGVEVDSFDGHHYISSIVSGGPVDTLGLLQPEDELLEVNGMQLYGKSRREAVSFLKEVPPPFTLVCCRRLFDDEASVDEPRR

LIN7C, Q9NUP9 = biological target: T8, LIN7C, Q9NUP9
T8 sequence (Q9NUP9 88-185, limits assumed, looked up): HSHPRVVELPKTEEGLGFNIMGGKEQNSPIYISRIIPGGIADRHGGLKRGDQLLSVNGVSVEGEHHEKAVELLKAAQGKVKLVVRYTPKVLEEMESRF

LNX1_2, Q8TBB1 = biological target: LNX1_2, Q8TBB1
Sequence of LNX1_2, Q8TBB1 (Q8TBB1 371-470): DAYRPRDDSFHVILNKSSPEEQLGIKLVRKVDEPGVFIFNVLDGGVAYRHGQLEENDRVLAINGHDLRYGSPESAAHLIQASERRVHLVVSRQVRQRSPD

LNX1_3, Q8TBB1 = biological target: LNX1_3, Q8TBB1
Sequence of LNX1_3, Q8TBB1 (Q8TBB1 500-596): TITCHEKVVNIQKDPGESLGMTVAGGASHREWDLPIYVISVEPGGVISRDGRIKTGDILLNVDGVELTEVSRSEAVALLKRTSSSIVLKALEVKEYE

LNX2_2, Q8N448 = biological target: T9, LNX2_2, Q8N448
T9 sequence (Q8N448 334-432, limits assumed, looked up): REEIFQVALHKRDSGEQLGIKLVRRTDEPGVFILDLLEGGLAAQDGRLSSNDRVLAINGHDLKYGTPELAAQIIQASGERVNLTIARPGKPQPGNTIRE

LNX2_3, Q8N448 = biological target: T10, LNX2_3, Q8N448
T10 sequence (Q8N448 463-564, limits assumed, looked up): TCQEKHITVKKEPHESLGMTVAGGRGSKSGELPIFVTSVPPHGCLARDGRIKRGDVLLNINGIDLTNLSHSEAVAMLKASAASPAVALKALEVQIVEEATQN

MAGI2_2, Q86UL8 = biological target: MAGI2_2, Q86UL8
Sequence of MAGI2_2, Q86UL8 (Q86UL8 410-522): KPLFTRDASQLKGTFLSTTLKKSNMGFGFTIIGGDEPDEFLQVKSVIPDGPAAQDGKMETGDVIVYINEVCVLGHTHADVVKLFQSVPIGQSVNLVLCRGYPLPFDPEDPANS

MPDZ_10, O75970 = biological target: T11, MPDZ_10, O75970
T11 sequence (O75970 1624-1722, limits assumed, looked up): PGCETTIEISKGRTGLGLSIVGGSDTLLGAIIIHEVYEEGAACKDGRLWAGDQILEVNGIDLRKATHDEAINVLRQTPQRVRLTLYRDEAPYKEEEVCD

NHERF3_3, Q5T2W1 = biological target: T12, NHERF3_3, Q5T2W1
T12 sequence (Q5T2W1 238-333, limits assumed, looked up): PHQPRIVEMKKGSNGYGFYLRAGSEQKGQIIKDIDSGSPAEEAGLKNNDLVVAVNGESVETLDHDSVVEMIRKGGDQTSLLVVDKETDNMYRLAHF

NHERF4_2, Q86UT5 = biological target: NHERF4_2, Q86UT5
Sequence of NHERF4_2, Q86UT5 (Q86UT5 220-308): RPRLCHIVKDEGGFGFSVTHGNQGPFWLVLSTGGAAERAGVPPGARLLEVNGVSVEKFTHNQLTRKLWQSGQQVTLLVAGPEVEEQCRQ

NHERF4_4, Q86UT5 = biological target: NHERF4_4, Q86UT5
Sequence of NHERF4_4, Q86UT5 (Q86UT5 464-550): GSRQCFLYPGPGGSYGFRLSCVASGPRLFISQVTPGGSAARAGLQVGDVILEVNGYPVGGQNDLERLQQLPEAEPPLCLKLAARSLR

PDLIM1, O00151 = biological target: PDLIM1, O00151
Sequence of PDLIM1, O00151 (O00151 1-87): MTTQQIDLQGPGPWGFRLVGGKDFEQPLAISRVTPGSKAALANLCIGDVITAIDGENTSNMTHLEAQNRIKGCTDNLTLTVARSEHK

SCRIB_1, Q14160 = biological target: SCRIB_1, Q14160
Sequence of SCRIB_1, Q14160 (Q14160 718-814): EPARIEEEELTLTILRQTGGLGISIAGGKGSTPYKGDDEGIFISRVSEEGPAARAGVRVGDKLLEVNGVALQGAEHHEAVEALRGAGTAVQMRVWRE

SNTA1, Q13424 = biological target: T13, SNTA1, Q13424
T13 sequence (Q13424 82-180, limits assumed, looked up): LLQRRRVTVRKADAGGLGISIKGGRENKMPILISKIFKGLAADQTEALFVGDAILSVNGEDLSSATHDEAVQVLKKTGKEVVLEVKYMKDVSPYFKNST

[1] = plain residues with an end cap or a label only (N-terminal biotin on a linker: (peg)3)
[2] = plain residues with an end cap or a label only (N-terminal biotin on a linker: ado-ado)

## YDEPTTTTSVPL [SARS-Cov2-3a, P0DTC3]
APBA1_1, Q02410; [1]
  pKd: below the threshold
APBA1_2, Q02410; [1]
  pKd: below the threshold
APBA2_1, Q99767; [1]
  pKd: below the threshold
APBA2_2, Q99767; [1]
  pKd: below the threshold
DLG4_1, P78352; [1]
  pKd: below the threshold
DVL3, Q92997; [1]
  pKd: below the threshold
FRMPD2_3, Q68DX3; [1]
  pKd: below the threshold
GRID2IP_1, A4D2P6; [1]
  pKd: below the threshold
GRIP1_4, Q9Y3R0; [1]
  pKd: below the threshold
GRIP2_4, Q9C0E4; [1]
  pKd: below the threshold
HTRA3, P83110; [1]
  pKd: below the threshold
Inadl_4, Q8NI35; [1]
  pKd: below the threshold
LIN7C, Q9NUP9; [1]
  pKd: below the threshold
LNX1_2, Q8TBB1; [1]
  pKd: below the threshold
LNX1_3, Q8TBB1; [1]
  pKd: below the threshold
LNX2_2, Q8N448; [1]
  pKd: below the threshold
LNX2_3, Q8N448; [1]
  pKd: below the threshold
MAGI2_2, Q86UL8; [1]
  pKd: below the threshold
MPDZ_10, O75970; [1]
  pKd: below the threshold
NHERF3_3, Q5T2W1; [1]
  pKd: below the threshold
NHERF4_2, Q86UT5; [1]
  pKd: below the threshold
NHERF4_4, Q86UT5; [1]
  pKd: below the threshold
PDLIM1, O00151; [1]
  pKd: below the threshold
SCRIB_1, Q14160; [1]
  pKd: below the threshold
SNTA1, Q13424; [1]
  pKd: below the threshold

## RTQSSDSAYV [GJD2, Q9UKL4]
APBA1_1, Q02410; [2]
  pKd: below the threshold
APBA1_2, Q02410; [2]
  pKd: 4.09
APBA2_1, Q99767; [2]
  pKd: below the threshold
APBA2_2, Q99767; [2]
  pKd: below the threshold
DLG4_1, P78352; [2]
  pKd: below the threshold
DVL3, Q92997; [2]
  pKd: 3.48
FRMPD2_3, Q68DX3; [2]
  pKd: 3.71
GRID2IP_1, A4D2P6; [2]
  pKd: below the threshold
GRIP1_4, Q9Y3R0; [2]
  pKd: below the threshold
GRIP2_4, Q9C0E4; [2]
  pKd: below the threshold
HTRA3, P83110; [2]
  pKd: 4.68
Inadl_4, Q8NI35; [2]
  pKd: below the threshold
LIN7C, Q9NUP9; [2]
  pKd: below the threshold
LNX1_2, Q8TBB1; [2]
  pKd: 4.11
LNX1_3, Q8TBB1; [2]
  pKd: 3.47
LNX2_2, Q8N448; [2]
  pKd: 4.65
LNX2_3, Q8N448; [2]
  pKd: below the threshold
MAGI2_2, Q86UL8; [2]
  pKd: below the threshold
MPDZ_10, O75970; [2]
  pKd: below the threshold
NHERF3_3, Q5T2W1; [2]
  pKd: below the threshold
NHERF4_2, Q86UT5; [2]
  pKd: below the threshold
NHERF4_4, Q86UT5; [2]
  pKd: below the threshold
PDLIM1, O00151; [2]
  pKd: below the threshold
SCRIB_1, Q14160; [2]
  pKd: below the threshold
SNTA1, Q13424; [2]
  pKd: below the threshold

## LTAQEQPVYI [APBA1, Q02410]
APBA1_1, Q02410; [2]
  pKd: 3.65
APBA1_2, Q02410; [2]
  pKd: 4.36
APBA2_1, Q99767; [2]
  pKd: below the threshold
APBA2_2, Q99767; [2]
  pKd: below the threshold
DLG4_1, P78352; [2]
  pKd: below the threshold
DVL3, Q92997; [2]
  pKd: 3.87
FRMPD2_3, Q68DX3; [2]
  pKd: below the threshold
GRID2IP_1, A4D2P6; [2]
  pKd: below the threshold
GRIP1_4, Q9Y3R0; [2]
  pKd: below the threshold
GRIP2_4, Q9C0E4; [2]
  pKd: below the threshold
HTRA3, P83110; [2]
  pKd: 4.41
Inadl_4, Q8NI35; [2]
  pKd: below the threshold
LIN7C, Q9NUP9; [2]
  pKd: below the threshold
LNX1_2, Q8TBB1; [2]
  pKd: below the threshold
LNX1_3, Q8TBB1; [2]
  pKd: below the threshold
LNX2_2, Q8N448; [2]
  pKd: 4.9
LNX2_3, Q8N448; [2]
  pKd: below the threshold
MAGI2_2, Q86UL8; [2]
  pKd: 3.52
MPDZ_10, O75970; [2]
  pKd: below the threshold
NHERF3_3, Q5T2W1; [2]
  pKd: below the threshold
NHERF4_2, Q86UT5; [2]
  pKd: below the threshold
NHERF4_4, Q86UT5; [2]
  pKd: below the threshold
PDLIM1, O00151; [2]
  pKd: below the threshold
SCRIB_1, Q14160; [2]
  pKd: below the threshold
SNTA1, Q13424; [2]
  pKd: below the threshold
